Experimental data as given in article PMC10620760, “Phosphorylation controls spatial and temporal activities of motor‐PRC1 complexes to complete mitosis” (The EMBO Journal, 2023).
Values belong to the binder of their own block, whether it stands above or below them. Ends that are not written are not given here.

B2: PRC1_(1–168) (domain or fragment, human, UniProt O43663 1-168, looked up)
chain: MRRSEVLAEESIVCLQKALNHLREIWELIGIPEDQRLQRTEVVKKHIKELLDMMIAEEESLKERLIKSISVCQKELNTLCSELHVEPFQEEGETTILQLEKDLRTQVELMRKQKKERKQELKLLQEQDQELCEILCMPHYDIDSASVPSLEELNQFRQHVTTLRETKA
notes: Dimer by SEC-MALS (52 ± 2.5 kDa measured); source: E. coli BL21-CodonPlus (DE3)-RIL, purified (HisTrap, SEC)

Tests used:
[1] = molecular target: T1, PRC1_(1–168) (human, UniProt O43663 1-168); assay: ITC
T1 chain: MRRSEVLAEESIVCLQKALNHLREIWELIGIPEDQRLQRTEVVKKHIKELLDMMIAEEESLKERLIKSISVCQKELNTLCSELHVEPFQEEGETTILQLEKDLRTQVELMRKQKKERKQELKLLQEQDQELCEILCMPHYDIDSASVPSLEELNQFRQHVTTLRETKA

[2] = molecular target: T2, GFP‐PRC1 (human, UniProt O43663 1-620); assay: TIRF microscopy, recruitment to microtubules in vitro; GMPCPP-stabilized rhodamine microtubules mixed with 647GST-CENP-E(2639-2671) alone, GFP-PRC1 alone or both, held on coverslips by anti-tubulin antibodies; 80 mM PIPES pH 6.9, 5 mM MgCl2, 1 mM DTT, oxygen scavenger; conditions: both partners purified
T2 construct: protein regulator of cytokinesis 1 (PRC1), human; Purified recombinant GFP-PRC1 of the TIRF assay; probably full length
T2 sequence (looked up): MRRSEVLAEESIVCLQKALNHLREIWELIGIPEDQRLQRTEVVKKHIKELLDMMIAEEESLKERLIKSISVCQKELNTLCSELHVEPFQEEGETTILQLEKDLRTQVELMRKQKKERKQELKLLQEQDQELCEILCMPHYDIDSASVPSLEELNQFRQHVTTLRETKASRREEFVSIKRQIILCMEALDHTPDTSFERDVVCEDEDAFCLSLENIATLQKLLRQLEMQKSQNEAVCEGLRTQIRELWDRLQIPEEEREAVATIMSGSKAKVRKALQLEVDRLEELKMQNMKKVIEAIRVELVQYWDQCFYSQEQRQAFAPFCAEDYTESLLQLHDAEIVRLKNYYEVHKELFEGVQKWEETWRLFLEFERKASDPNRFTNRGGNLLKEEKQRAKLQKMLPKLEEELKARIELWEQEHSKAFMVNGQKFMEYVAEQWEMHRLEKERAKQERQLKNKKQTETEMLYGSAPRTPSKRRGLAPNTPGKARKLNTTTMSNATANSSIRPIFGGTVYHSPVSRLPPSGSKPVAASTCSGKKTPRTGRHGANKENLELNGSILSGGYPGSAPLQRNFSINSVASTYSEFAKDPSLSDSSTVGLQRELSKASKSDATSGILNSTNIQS

[3] = molecular target: GST‐CENP‐E_(2605–2701) 6SD (human, UniProt Q02224-1 2605-2701, S2639D | S2647D | S2649D (printed S2469D in Table 1; S2649 in the text) | …); assay: ITC
[4] = molecular target: the molecule itself; assay: SEC-MALS; 100 μl of 3.6 mg/ml PRC1(1-168) (152 μM) or 2.0 mg/ml PRC1(1-168) MEE (84 μM), Superdex-200 Increase 10/300 GL, 20 mM HEPES pH 7.4, 300 mM NaCl, 1 mM EDTA, 22°C
[5] = molecular target: B2; assay: SEC; proteins mixed at equimolar (1:1) ratio, Superdex 200 Increase 10/300 GL, 20 mM HEPES pH 7.5, 300 mM NaCl, 1 mM EDTA, 1 mM DTT; fractions on Coomassie-stained SDS-PAGE; conditions: both partners purified
[6] = molecular target: B2; assay: ITC; PRC1(1-168) titrated into the CENP-E construct or peptide in the cell, 25°C, 20 mM HEPES pH 7.5, 150 mM NaCl, 0.005% Tween-20, 0.5 mM TCEP; one set of sites; concentrations calculated for monomers; conditions: both partners purified

Binder: B2
Kd [3]: > 100 µM
stoichiometry N [4]: 2

B3: GST‐Kif4A_(1133–1232) (domain or fragment, human, UniProt O95239 1133-1232, looked up)
chain: TQDSEGSFKLEDPTEVTPGLSFFNPVCATPNSKILKEMCDVEQVLSKKTPPAPSPFDLPELKHVATEYQENKAPGKKKKRALASNTSFFSGCSPIEEEAH
notes: also called pAG127; source: E. coli BL21-CodonPlus (DE3)-RIL, purified
binding result [5]: binds

B4: GST‐CENP‐E_(2605–2701) 2SD (domain or fragment, human, UniProt Q02224-1 2605-2701, looked up)
chain: SPKSPKVTGTASKKKQITPSQCKERNLQDPVPKEDPKSCFFDSRSKSLPDPHPVRYFDNSSLGLCPEVQNAGAESVDSQPGPWHASSGKDVPECKTQ
notes: also called pAG96; source: E. coli BL21-CodonPlus (DE3)-RIL, purified; not shown: GST, N-terminal, kept
Kd [6]: 2.4 µM

B5: PRC1_(1–168) MEE (domain or fragment, human, UniProt O43663 1-168, looked up)
chain: MRRSEVLAEESIVCLQKALNHLREIWELIGIPEDQRLQRTEVVKKHIKELLDMAIAAAESLKERLIKSISVCQKELNTLCSELHVEPFQEEGETTILQLEKDLRTQVELMRKQKKERKQELKLLQEQDQELCEILCMPHYDIDSASVPSLEELNQFRQHVTTLRETKA
notes: Vector pET Duet 1; dimer by SEC-MALS; source: E. coli BL21-CodonPlus (DE3)-RIL, purified
stoichiometry N [4]: 2

Next, values leading:

Kd [1]: 41.1 µM
Binder: PKSCFFDSRSK [CENP‐E peptide 1]

binding result [2]: binds
B1: 647GST‐CENP‐E_(2639–2671) (domain or fragment, human, UniProt Q02224-1 2639-2671, looked up)
chain: SPKSCFFDSRSKSLPSPHPVRYFDNSSLGLCPE
modifications: cysteine pairing not given here; also: Alexa Fluor 647 label, site not given here (degree of labelling ~1:3), GST fusion
notes: also called pAG118

Kd [1]: 64 µM
Binder: PVRYFDNSSLG [CENP‐E peptide 2]
